Measured values published in patent US20180215801A1 (BOARD OF TRUSTEES OF MICHIGAN STATE UNIVERSITY, published 2018).

Columns and labels:
[1] = biological target: T1, ALK4-Fc (human ALK4 extracellular domain fused to human IgG1 Fc) (human, UniProt P36896 24-110); assay: SPR (Biacore 2000), Fc fusion captured on anti-human Fc chip, ligand injected, 1:1 Langmuir fit
T1 construct: range 1-110; Captured on an anti-human Fc chip in SPR; also called ALK4-hIgg-Fc; human ALK4-Fc
Description: (§1) Receptor-ligand binding affinities were determined by SPR using the Biacore 2000. Anti-human IgG (Fc) antibody was immobilized onto four channels of a CM5 chip using amine coupling chemistry. […] A reference channel was monitored to account for nonspecific binding, drift, and bulk shifts. […] After each binding cycle, the antibody surface was regenerated to base line. All experiments were carried out at 25° C. HBS-EPS buffer (0.01 M HEPES, […], 3 mM EDTA, 0.005% (v/v) Tween 20, pH 7.4) containing 0.1% BSA was used as running buffer. […] Sensograms were analyzed by double referencing. To obtain kinetic rate constants, the processed data was fitted to 1:1 Langmuir interaction model with mass transport limitation using Scrubber, Clamp or BiaEvaluation software. The equilibrium binding constant Kd was determined by calculating the ratio of binding rate constants kd/kₐ.

[2] = biological target: T2, Fc-free Cryptic (human Cryptic extracellular domain after removal of the Fc with TEV protease) (human, UniProt P0CG37 26-155); assay: SPR competition: 1 nM Activin A preincubated with Fc-free Cryptic, binding to captured ACTRIIA-Fc is blocked
T2 construct: Same conflict about the C-terminal limit as for Cryptic-Fc (155 vs 167)
Description: (§2) Receptor-ligand binding affinities were determined by SPR using the Biacore 2000. Anti-human IgG (Fc) antibody was immobilized onto four channels of a CM5 chip using amine coupling chemistry. […] A reference channel was monitored to account for nonspecific binding, drift, and bulk shifts.

[3] = biological target: T2, Fc-free Cryptic (human Cryptic …); assay: SPR competition: 10 nM Activin B preincubated with Fc-free Cryptic, binding to captured ACTRIIA-Fc is blocked
Description: as §2

[4] = biological target: T1, ALK4-Fc (human ALK4 extracellular …); assay: SPR, ALK4-Fc captured, Activin A series preincubated with excess Fc-free Cryptic injected
Description: as §1

T1 sequence (P36896 other isoform, or with tags, fused parts or gaps limits assumed, form in doubt): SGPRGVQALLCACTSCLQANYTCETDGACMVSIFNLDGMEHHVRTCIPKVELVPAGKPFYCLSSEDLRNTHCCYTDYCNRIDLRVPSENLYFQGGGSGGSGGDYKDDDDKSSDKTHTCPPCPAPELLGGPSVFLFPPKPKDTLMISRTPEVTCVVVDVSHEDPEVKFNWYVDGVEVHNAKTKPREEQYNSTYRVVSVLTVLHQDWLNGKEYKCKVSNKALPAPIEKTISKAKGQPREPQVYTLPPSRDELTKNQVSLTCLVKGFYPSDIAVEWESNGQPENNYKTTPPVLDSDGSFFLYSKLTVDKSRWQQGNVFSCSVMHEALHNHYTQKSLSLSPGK

B1: Activin A (ligand)
chain: GLECDGKVNICCKKQFFVSFKDIGWNDWIIAPSGYHANYCEGECPSHIAGTSGSSLSFHSTVINHYRMRGHSPFANLKSCCVPTKLRPMSMLYYDDGQNIIKKDIQNMIVEECGCS
notes: also called homodimer of inhibin beta A subunits
Kd [1]: 4 nM
koff [1]: 0.0018 s⁻¹
kon [1]: 450000 M⁻¹ s⁻¹
binding result [2]: binds

B2: Activin B (ligand, UniProt P09529 293-407, looked up)
chain: GLECDGRTNLCCRQQFFIDFRLIGWNDWIIAPTGYYGNYCEGSCPAYLAGVPGSASSFHTAVVNQYRMRGLNPGTVNSCCIPTKLSTMSMLYFDDEYNIVKRDVPNMIVEECGCA
notes: also called recombinant Activin B
binding result [3]: binds

B3: Activin A/Cryptic complex (Activin A preincubated with excess Fc-free Cryptic) (other)
chain 1: B1 chain
chain 2: not shown
Kd [4]: 2.6 nM
koff [4]: 0.0016 s⁻¹
kon [4]: 620000 M⁻¹ s⁻¹
